In patent US20210188971A1:

Target: TSHR on engineered CHO cells (UniProt P16473)
Experiment: flow cytometry on CHO cells engineered with TSHR, detected with anti-human IgG1 Fc-Alexa Fluor 488

concentration at which fluorescence intensity peaked: 30 µg/mL
B1: M22 Fabs (control of Example 16) (Fab, V domains shown)
VH: QVQLVQSGAEVKKPGESLKISCRGSGYRFTSYWINWVRQLPGKGLEWMGRIDPTDSYTNYSPSFKGHVTVSADKSINTAYLQWSSLKASDTGMYYCARLEPGYSSTWSVNWGQGTLVTVSS
VL: LTVLTQPPSVSGAPRQRVTISCSGNSSNIGNNAVNWYQQLPGKAPKLLIYYDDQLPSGVSDRFSGSRSGTSASLAIRGLQSEDEADYYCTSWDDSLDSQLFGGGTRLTVL
